Measurements from patent US20070128190A1 (GLENMARK PHARMACEUTICALS S A, published 2007).

Columns and labels:
[1] = biological target: human α2β1 integrin on human cells (platelets, leukocytes, HT1080) (human, UniProt P17301 30-1181; P05556 21-798); experiment: cell-based or functional assay
[2] = biological target: T1, human platelet α2β1 integrin (immobilized on microtiter plates) (human, UniProt P17301 30-1181; P05556 21-798); experiment: competition with Eu-TMC-2206 on platelet α2β1-coated plates
T1 construct: plates custom-coated with human platelet α2β1 by GTI Inc; also called immobilized α2β1 integrin; α2β1-coated plates
T1 sequence (P17301 30-1181 E534K limits assumed, chain 1 of 2): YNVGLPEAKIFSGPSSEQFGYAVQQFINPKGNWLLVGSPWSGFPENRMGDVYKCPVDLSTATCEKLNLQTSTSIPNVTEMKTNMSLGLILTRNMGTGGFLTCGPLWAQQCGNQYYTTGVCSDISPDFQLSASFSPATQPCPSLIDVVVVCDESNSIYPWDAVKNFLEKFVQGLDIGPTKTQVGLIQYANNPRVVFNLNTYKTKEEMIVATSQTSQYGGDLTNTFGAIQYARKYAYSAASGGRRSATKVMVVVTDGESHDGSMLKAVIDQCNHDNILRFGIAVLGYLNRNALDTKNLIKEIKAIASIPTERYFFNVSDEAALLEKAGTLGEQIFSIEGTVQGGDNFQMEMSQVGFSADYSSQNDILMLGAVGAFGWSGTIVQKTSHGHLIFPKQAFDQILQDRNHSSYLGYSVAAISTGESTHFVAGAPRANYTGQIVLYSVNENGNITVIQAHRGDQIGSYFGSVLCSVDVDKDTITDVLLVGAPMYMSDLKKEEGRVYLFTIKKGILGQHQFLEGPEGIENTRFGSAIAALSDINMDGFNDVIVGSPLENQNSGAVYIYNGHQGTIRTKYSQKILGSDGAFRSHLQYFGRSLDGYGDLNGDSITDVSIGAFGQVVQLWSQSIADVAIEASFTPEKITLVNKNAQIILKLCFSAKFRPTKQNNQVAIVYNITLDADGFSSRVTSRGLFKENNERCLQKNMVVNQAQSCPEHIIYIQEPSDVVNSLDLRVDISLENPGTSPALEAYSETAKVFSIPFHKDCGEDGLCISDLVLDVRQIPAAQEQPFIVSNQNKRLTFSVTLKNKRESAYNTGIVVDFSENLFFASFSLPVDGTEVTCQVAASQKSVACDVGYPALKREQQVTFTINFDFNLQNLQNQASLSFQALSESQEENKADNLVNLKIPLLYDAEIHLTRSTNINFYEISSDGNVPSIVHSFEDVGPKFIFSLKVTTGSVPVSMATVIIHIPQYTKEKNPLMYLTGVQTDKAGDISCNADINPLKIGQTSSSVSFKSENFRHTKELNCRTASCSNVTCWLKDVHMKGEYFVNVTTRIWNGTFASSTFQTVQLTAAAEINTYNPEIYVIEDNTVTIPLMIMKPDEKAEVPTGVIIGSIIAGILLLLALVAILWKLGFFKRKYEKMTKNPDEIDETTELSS
T1 sequence (P05556 21-798 limits assumed, chain 2 of 2): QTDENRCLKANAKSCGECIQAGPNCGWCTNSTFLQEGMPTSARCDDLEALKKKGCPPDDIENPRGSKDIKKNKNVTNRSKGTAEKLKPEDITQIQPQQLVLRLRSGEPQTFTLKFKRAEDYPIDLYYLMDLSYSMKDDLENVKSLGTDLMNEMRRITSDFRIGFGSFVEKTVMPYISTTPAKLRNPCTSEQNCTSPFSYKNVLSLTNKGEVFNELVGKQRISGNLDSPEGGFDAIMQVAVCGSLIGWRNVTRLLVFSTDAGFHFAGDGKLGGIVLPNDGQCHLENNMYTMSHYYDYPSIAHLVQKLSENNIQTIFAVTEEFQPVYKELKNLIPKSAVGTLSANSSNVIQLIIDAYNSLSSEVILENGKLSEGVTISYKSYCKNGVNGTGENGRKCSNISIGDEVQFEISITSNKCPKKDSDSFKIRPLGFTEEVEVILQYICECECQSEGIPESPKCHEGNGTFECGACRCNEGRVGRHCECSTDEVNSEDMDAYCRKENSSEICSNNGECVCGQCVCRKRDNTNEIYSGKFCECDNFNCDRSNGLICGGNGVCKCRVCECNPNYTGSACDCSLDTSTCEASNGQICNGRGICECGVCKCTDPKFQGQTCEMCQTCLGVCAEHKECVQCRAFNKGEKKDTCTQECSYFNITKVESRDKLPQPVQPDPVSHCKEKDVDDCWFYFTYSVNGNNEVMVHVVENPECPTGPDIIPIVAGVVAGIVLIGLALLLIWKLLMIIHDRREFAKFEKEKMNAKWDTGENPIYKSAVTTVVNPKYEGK

GST-hα2 I domain K78E = biological target: T2, GST-hα2 I domain K78E (human, UniProt P08515 1-218 = GST); experiment: ELISA, GST fusion protein on immobilized TMC-2206 (Kd apparent)
T2 construct: same construct as m41
Procedure: The fusion proteins were then expressed and purified as described above for the human GST-α2 I domain fusion protein. […] Therefore, these and the primate fusion proteins were further purified by size exclusion chromatography on a Sephadex 75 10/30 (GE-Amersham) column (primate) by FPLC on an Akta-Basic FPLC system (GE-Amersham) to yield a monomeric fraction. […] The Kᵢ assays were performed as described above in Example 2. […] Plates were sealed and coating occurred overnight at 4° C. The next morning, the plates were washed twice with TBS solution and then blocked using 200 μL of the blocking solution described above for 1 hour at room temperature with shaking. After blocking, the blocking solution was removed but the wells were not washed. Instead, a serial dilution of GST fusion protein was made, added to the wells and then incubated for 2 hours at room temperature with shaking. The wells were then aspirated and a TBS washing buffer applied for 5 minutes at room temperature. The washing step was repeated twice more before the secondary antibody was applied. The secondary antibody step consisted of Amersham's HRP-conjugated rabbit anti-GST antibody diluted 1:2000 in blocking buffer. One hundred μL of secondary antibody was added to each well and incubated at room temperature for 1.5 hours with shaking. The wells were again aspirated and washed three times with wash buffer before adding the substrate reaction mixture. One hundred μL of substrate reaction mixture (1:1 dilution of TMB kit) was then added to each well for 6 minutes. The reaction was stopped by adding 100 μL of 0.1M H₂SO₄. The reaction within the wells was then read and quantified by spectrophotometric absorption using the Molecular Dynamics plate reader and associated Softmax software, respectively. Kd values were then estimated from the EC₅₀ values using Prism software (Graphpad, Calif.).

[3] = biological target: human α1β1 integrin (immobilized) (human, UniProt P56199 29-1179; P05556 21-798, limits assumed); experiment: ELISA on immobilized human α1β1
Sequence of human α1β1 integrin (immobilized) (P56199 29-1179 limits assumed, chain 1 of 2): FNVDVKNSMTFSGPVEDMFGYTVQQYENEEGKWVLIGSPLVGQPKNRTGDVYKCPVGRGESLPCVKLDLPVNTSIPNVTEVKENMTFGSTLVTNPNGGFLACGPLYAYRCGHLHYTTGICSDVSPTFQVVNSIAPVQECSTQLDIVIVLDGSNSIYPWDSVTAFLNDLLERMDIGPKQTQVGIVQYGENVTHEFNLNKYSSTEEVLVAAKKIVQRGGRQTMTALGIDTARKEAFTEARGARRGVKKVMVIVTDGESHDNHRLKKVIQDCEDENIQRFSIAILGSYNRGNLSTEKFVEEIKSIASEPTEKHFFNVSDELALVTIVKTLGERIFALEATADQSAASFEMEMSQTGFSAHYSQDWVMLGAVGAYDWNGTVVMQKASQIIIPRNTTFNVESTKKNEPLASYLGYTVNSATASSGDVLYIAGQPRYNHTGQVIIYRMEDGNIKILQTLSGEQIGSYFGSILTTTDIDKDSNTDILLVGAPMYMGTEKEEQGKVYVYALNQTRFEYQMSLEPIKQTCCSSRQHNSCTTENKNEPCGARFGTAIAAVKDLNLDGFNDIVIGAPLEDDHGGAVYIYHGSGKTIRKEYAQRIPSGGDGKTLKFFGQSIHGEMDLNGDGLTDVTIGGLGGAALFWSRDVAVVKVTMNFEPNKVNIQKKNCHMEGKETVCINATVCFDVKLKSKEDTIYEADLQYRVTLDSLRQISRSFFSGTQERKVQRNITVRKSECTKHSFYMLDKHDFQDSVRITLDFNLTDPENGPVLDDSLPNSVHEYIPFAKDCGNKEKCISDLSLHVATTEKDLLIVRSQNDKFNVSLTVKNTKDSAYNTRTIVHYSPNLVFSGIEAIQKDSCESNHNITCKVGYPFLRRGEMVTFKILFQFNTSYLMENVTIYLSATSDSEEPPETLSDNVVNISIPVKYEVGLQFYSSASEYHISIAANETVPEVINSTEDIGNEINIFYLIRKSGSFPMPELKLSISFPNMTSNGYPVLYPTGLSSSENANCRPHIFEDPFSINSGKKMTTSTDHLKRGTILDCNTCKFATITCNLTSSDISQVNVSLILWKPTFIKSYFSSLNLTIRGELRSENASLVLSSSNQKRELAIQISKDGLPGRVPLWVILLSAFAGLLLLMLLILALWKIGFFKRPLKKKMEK
Sequence of human α1β1 integrin (immobilized) (P05556 21-798 limits assumed, chain 2 of 2): as the sequence (P05556 21-798 limits assumed, chain 2 of 2) above
Procedure: Human α1β1 integrin (Chemicon International) was diluted in Coating Buffer (25 mM Tris, pH 7.5, 150 mM NaCl, 1 mM MgCl₂) to a final concentration of 0.5 μg/ml. 96-well immunoplates were coated with α1β1 at 50 ng/well and incubated overnight at 4° C. The plates were washed three times with Wash Buffer (50 mM Tris, pH 7.5, 150 mM NaCl, 2 mM MgCl₂, 0.5% Tween-20) and blocked with 5% w/v/skim milk in Wash Buffer for one hour at room temperature. […] Fifty microliters/well of the diluted antibody solutions were added to the α1β1-coated plates, incubated for one hour at room temperature, and then washed three times. […] After a one-hour incubation at room temperature, the plates were washed three times, incubated in substrate solution (1 mg/ml 4-nitrophenyl phosphate, 0.1 M diethanolamine, 5 mM MgCl₂, pH 9.8) for 20 minutes, and terminated with NaOH. The absorbance (405 nm) was read using a Spectramax Plus plate reader using Softmax Pro software. […] The control anti-α1β1 antibody (FB-12) bound to α1β1 with an EC₅₀ of 0.79±0.15 nM.

[4] = biological target: T3, GST-cynomolgus α2 I domain fusion protein of Example 18 (sequence identical to the human I domain) (cynomolgus monkey, UniProt P17301 153-368 (human entry)); experiment: SPR (Biacore 2000), antibody captured, GST-α2 I domain in solution
T3 construct: also called GST-cynomolgous-α2 I domain fusion protein; not shown: glutathione S-transferase tag, vector not restated
T3 sequence: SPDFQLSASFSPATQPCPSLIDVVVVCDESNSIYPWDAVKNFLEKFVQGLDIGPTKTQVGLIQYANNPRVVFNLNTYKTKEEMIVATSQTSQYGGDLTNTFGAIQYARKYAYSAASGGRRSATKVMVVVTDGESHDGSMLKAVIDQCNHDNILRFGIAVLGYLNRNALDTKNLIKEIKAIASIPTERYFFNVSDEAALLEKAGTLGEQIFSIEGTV

Sequence of human α2β1 integrin on human cells (platelets, leukocytes, HT1080) (P17301 30-1181 E534K limits assumed, chain 1 of 2): as the sequence (P17301 30-1181 E534K limits assumed, chain 1 of 2) above
Sequence of human α2β1 integrin on human cells (platelets, leukocytes, HT1080) (P05556 21-798 limits assumed, chain 2 of 2): as the sequence (P05556 21-798 limits assumed, chain 2 of 2) above

Binder	EC50 (nM), human platelet adhesion to human collagen Type I, ADP 0 µM [1]	EC50 (nM), human platelet adhesion to human collagen Type I, ADP 20 µM [1]	EC50 (nM), human platelet adhesion to human collagen Type II, ADP 0 µM [1]	EC50 (nM), human platelet adhesion to human collagen Type II, ADP 20 µM [1]	EC50 (nM), human platelet adhesion to human collagen Type III, ADP 0 µM [1]	EC50 (nM), human platelet adhesion to human collagen Type III, ADP 20 µM [1]	EC50 (nM), human platelet adhesion to human collagen Type IV, ADP 0 µM [1]	EC50 (nM), human platelet adhesion to human collagen Type IV, ADP 20 µM [1]	EC50 (nM), human platelet adhesion to human collagen Type VI, ADP 0 µM [1]	EC50 (nM), human platelet adhesion to human collagen Type VI, ADP 20 µM [1]	Ki [2]	Kd (GST-hα2 I domain K78E)	binding result [3]	Kd [4]	koff [4]	kon [4]
TMC-2206 (antibody, mouse IgG1, V domains shown, murine IgG1/κ secreted by hybridoma BHA2.1; labelled with Eu-N1-ITC where used as tracer; also called BHA2.1) VH: QVQLKESGPGLVAPSQSLSITCTVSGFSLTNYGIHWVRQPPGKGLEWLGVIWARGFTNYNSALMSRLIITKDNSQSQVFLKMNSLQPDDSATYFCARANDGVYYAMDYWGQGTSVTVSS VL: QFVLTQSPAFLSASPGEKVTMTCSANSSVNYIHWYQQKSGTSPKKWIYDTSKLASGVPVRFSGSGSGTSYSLTISSMETEDAATYYCQQWTTNPLTFGAGTRVELK	1.7 nM	9.5 nM	1.9 nM	27 nM	1.6 nM	11 nM	10 nM	> 1000 nM	2.3 nM	23 nM	0.11 nM	0.16 nM	–	–	–	–
Humanized TMC-2206 (hIgG4/κ VH12.0/VL10.0Q) (antibody, labelled with Eu or Alexa-488 in some assays) heavy: not shown light: DFVMTQSPAFLSVTPGEKVTITCSAQSSVNYIHWYQQKPDQAPKKLIYDTSKLASGVPSRFSGSGSGTDYTFTISSLEAEDAATYYCQQWTTNPLTFGQGTKVEIKRTVAAPSVFIFPPSDEQLKSGTASVVCLLNNFYPREAKVQWKVDNALQSGNSQESVTEQDSKDSTYSLSSTLTLSKADYEKHKVYACEVTHQGLSSPVTKSFNRGEC	–	–	–	–	–	–	–	–	–	–	–	–	no binding	5 nM	0.003 s⁻¹	500000 M⁻¹ s⁻¹
